Drawing on the Human Domainome abundance scans (Beltran et al. 2025), this text covers abundance fitness for 91 substances.

± gives the uncertainty stated by the source.

This data set in a line: abundance fitness (aPCA) (normalised: wild type 0, dead -1); higher = more abundant; growth selection in yeast, the domain comes from the species named. Conditions: Saccharomyces cerevisiae (strain ATCC 204508 / S288c).
The substance “E3 ubiquitin-protein ligase RSP5 E344P, P39940” came in with an abundance fitness of -0.428 ± 0.071.

“E3 ubiquitin-protein ligase RSP5 E344Q, P39940”: the abundance fitness is -0.081 ± 0.053.

The substance “E3 ubiquitin-protein ligase RSP5 E344R, P39940” came in with an abundance fitness of -0.256 ± 0.047.

Take “E3 ubiquitin-protein ligase RSP5 E344S, P39940”: the abundance fitness is -0.168 ± 0.048.

Consider “E3 ubiquitin-protein ligase RSP5 E344T, P39940”, for which the abundance fitness was -0.088 ± 0.051.

In turn, “E3 ubiquitin-protein ligase RSP5 E344V, P39940” gave an abundance fitness of -0.308 ± 0.054.

“E3 ubiquitin-protein ligase RSP5 E344W, P39940” returned an abundance fitness of -0.338 ± 0.046.

In the case of “E3 ubiquitin-protein ligase RSP5 F341A, P39940”, the abundance fitness is -0.072 ± 0.049.

With “E3 ubiquitin-protein ligase RSP5 F341C, P39940”, the abundance fitness worked out at 0.051 ± 0.069.

“E3 ubiquitin-protein ligase RSP5 F341E, P39940”: the abundance fitness was 0.068 ± 0.064.

As to “E3 ubiquitin-protein ligase RSP5 F341G, P39940”, the abundance fitness was -0.284 ± 0.044.

Consider “E3 ubiquitin-protein ligase RSP5 F341I, P39940”, for which the abundance fitness is -0.027 ± 0.092.

In turn, “E3 ubiquitin-protein ligase RSP5 F341N, P39940” gave an abundance fitness of 0.189 ± 0.11.

Substance “E3 ubiquitin-protein ligase RSP5 F341P, P39940” yielded an abundance fitness of -0.669 ± 0.082.

“E3 ubiquitin-protein ligase RSP5 F341R, P39940” displayed an abundance fitness of -0.053 ± 0.045.

Consider “E3 ubiquitin-protein ligase RSP5 F341S, P39940”, for which the abundance fitness was -0.066 ± 0.06.

Substance “E3 ubiquitin-protein ligase RSP5 F341T, P39940” yielded an abundance fitness of 0.003 ± 0.067.

The substance “E3 ubiquitin-protein ligase RSP5 F341V, P39940” came in with an abundance fitness of 0.019 ± 0.043.

“E3 ubiquitin-protein ligase RSP5 F341W, P39940” returned an abundance fitness of -0.064 ± 0.056.

Regarding “E3 ubiquitin-protein ligase RSP5 F341Y, P39940”, the abundance fitness is 0.048 ± 0.054.

For “E3 ubiquitin-protein ligase RSP5 F349A, P39940”, the abundance fitness was -0.708 ± 0.047.

On to “E3 ubiquitin-protein ligase RSP5 F349G, P39940”, for which the abundance fitness was -0.703 ± 0.043.

The substance “E3 ubiquitin-protein ligase RSP5 F349I, P39940” had an abundance fitness of -0.814 ± 0.1.

With “E3 ubiquitin-protein ligase RSP5 F349K, P39940”, the abundance fitness was -0.837 ± 0.13.

“E3 ubiquitin-protein ligase RSP5 F349L, P39940” registered an abundance fitness of -0.648 ± 0.055.

“E3 ubiquitin-protein ligase RSP5 F349M, P39940” gave an abundance fitness of -0.662 ± 0.15.

In the case of “E3 ubiquitin-protein ligase RSP5 F349P, P39940”, the abundance fitness is -0.804 ± 0.08.

In the case of “E3 ubiquitin-protein ligase RSP5 F349R, P39940”, the abundance fitness was -0.937 ± 0.051.

Substance “E3 ubiquitin-protein ligase RSP5 F349S, P39940” displayed an abundance fitness of -0.83 ± 0.057.

“E3 ubiquitin-protein ligase RSP5 F349V, P39940” showed an abundance fitness of -0.739 ± 0.044.

In turn, “E3 ubiquitin-protein ligase RSP5 F349W, P39940” gave an abundance fitness of -0.008 ± 0.052.

Substance “E3 ubiquitin-protein ligase RSP5 F349Y, P39940” gave an abundance fitness of 0.086 ± 0.072.

For “E3 ubiquitin-protein ligase RSP5 G324A, P39940”, the abundance fitness came out at 0.004 ± 0.084.

Take “E3 ubiquitin-protein ligase RSP5 G324C, P39940”: the abundance fitness stood at 0.204 ± 0.12.

The substance “E3 ubiquitin-protein ligase RSP5 G324D, P39940” yielded an abundance fitness of 0.06 ± 0.065.

For “E3 ubiquitin-protein ligase RSP5 G324E, P39940”, the abundance fitness turned out to be 0.216 ± 0.071.

“E3 ubiquitin-protein ligase RSP5 G324F, P39940” showed an abundance fitness of -0.48 ± 0.45.

The substance “E3 ubiquitin-protein ligase RSP5 G324K, P39940” came in with an abundance fitness of 0.284 ± 0.14.

With “E3 ubiquitin-protein ligase RSP5 G324L, P39940”, the abundance fitness was -0.328 ± 0.13.

Substance “E3 ubiquitin-protein ligase RSP5 G324M, P39940” returned an abundance fitness of 0.105 ± 0.12.

“E3 ubiquitin-protein ligase RSP5 G324N, P39940” displayed an abundance fitness of 0.182 ± 0.12.

Substance “E3 ubiquitin-protein ligase RSP5 G324P, P39940” registered an abundance fitness of -0.178 ± 0.1.

Substance “E3 ubiquitin-protein ligase RSP5 G324R, P39940” gave an abundance fitness of -0.099 ± 0.066.

Regarding “E3 ubiquitin-protein ligase RSP5 G324S, P39940”, the abundance fitness came out at 0.097 ± 0.092.

“E3 ubiquitin-protein ligase RSP5 G324T, P39940”: the abundance fitness is -0.04 ± 0.11.

In the case of “E3 ubiquitin-protein ligase RSP5 G324V, P39940”, the abundance fitness was found to be 0.005 ± 0.11.

“E3 ubiquitin-protein ligase RSP5 G324W, P39940” had an abundance fitness of -0.344 ± 0.086.

“E3 ubiquitin-protein ligase RSP5 G325A, P39940” gave an abundance fitness of -0.046 ± 0.051.

On to “E3 ubiquitin-protein ligase RSP5 G325C, P39940”, for which the abundance fitness is -0.008 ± 0.071.

“E3 ubiquitin-protein ligase RSP5 G325D, P39940”: the abundance fitness worked out at 0.051 ± 0.051.

Substance “E3 ubiquitin-protein ligase RSP5 G325E, P39940” yielded an abundance fitness of -0.031 ± 0.067.

In the case of “E3 ubiquitin-protein ligase RSP5 G325F, P39940”, the abundance fitness was -0.132 ± 0.065.

With “E3 ubiquitin-protein ligase RSP5 G325H, P39940”, the abundance fitness is -0.035 ± 0.099.

“E3 ubiquitin-protein ligase RSP5 G325I, P39940” had an abundance fitness of 0.018 ± 0.092.

For “E3 ubiquitin-protein ligase RSP5 G325L, P39940”, the abundance fitness worked out at 0.029 ± 0.11.

The substance “E3 ubiquitin-protein ligase RSP5 G325M, P39940” registered an abundance fitness of 0.137 ± 0.095.

“E3 ubiquitin-protein ligase RSP5 G325P, P39940” registered an abundance fitness of -0.252 ± 0.072.

“E3 ubiquitin-protein ligase RSP5 G325Q, P39940” came in with an abundance fitness of -0.151 ± 0.1.

Consider “E3 ubiquitin-protein ligase RSP5 G325R, P39940”, for which the abundance fitness is -0.063 ± 0.047.

In turn, “E3 ubiquitin-protein ligase RSP5 G325S, P39940” registered an abundance fitness of 0.069 ± 0.094.

In turn, “E3 ubiquitin-protein ligase RSP5 G325T, P39940” showed an abundance fitness of 0.071 ± 0.097.

For “E3 ubiquitin-protein ligase RSP5 G325V, P39940”, the abundance fitness is -0.021 ± 0.045.

As to “E3 ubiquitin-protein ligase RSP5 G325W, P39940”, the abundance fitness is -0.141 ± 0.099.

As to “E3 ubiquitin-protein ligase RSP5 G325Y, P39940”, the abundance fitness is -0.057 ± 0.083.

Take “E3 ubiquitin-protein ligase RSP5 G329A, P39940”: the abundance fitness is 0.037 ± 0.044.

In turn, “E3 ubiquitin-protein ligase RSP5 G329C, P39940” yielded an abundance fitness of 0.077 ± 0.082.

Take “E3 ubiquitin-protein ligase RSP5 G329D, P39940”: the abundance fitness came to 0.149 ± 0.066.

On to “E3 ubiquitin-protein ligase RSP5 G329E, P39940”, for which the abundance fitness turned out to be 0.096 ± 0.055.

As to “E3 ubiquitin-protein ligase RSP5 G329F, P39940”, the abundance fitness was -0.026 ± 0.091.

Substance “E3 ubiquitin-protein ligase RSP5 G329H, P39940” gave an abundance fitness of -0.046 ± 0.083.

Substance “E3 ubiquitin-protein ligase RSP5 G329L, P39940” came in with an abundance fitness of -0.129 ± 0.047.

For the substance “E3 ubiquitin-protein ligase RSP5 G329M, P39940”, the abundance fitness was 0.061 ± 0.098.

In turn, “E3 ubiquitin-protein ligase RSP5 G329N, P39940” returned an abundance fitness of 0.1 ± 0.069.

In the case of “E3 ubiquitin-protein ligase RSP5 G329P, P39940”, the abundance fitness was -0.113 ± 0.052.

“E3 ubiquitin-protein ligase RSP5 G329Q, P39940” displayed an abundance fitness of 0.18 ± 0.096.

For “E3 ubiquitin-protein ligase RSP5 G329R, P39940”, the abundance fitness was -0.021 ± 0.043.

In turn, “E3 ubiquitin-protein ligase RSP5 G329S, P39940” gave an abundance fitness of 0.103 ± 0.054.

In turn, “E3 ubiquitin-protein ligase RSP5 G329T, P39940” yielded an abundance fitness of 0.063 ± 0.071.

With “E3 ubiquitin-protein ligase RSP5 G329V, P39940”, the abundance fitness was -0.006 ± 0.042.

As to “E3 ubiquitin-protein ligase RSP5 G329W, P39940”, the abundance fitness was -0.139 ± 0.058.

Substance “E3 ubiquitin-protein ligase RSP5 G329Y, P39940” yielded an abundance fitness of -0.337 ± 0.39.

“E3 ubiquitin-protein ligase RSP5 G331A, P39940” came in with an abundance fitness of -0.034 ± 0.042.

With “E3 ubiquitin-protein ligase RSP5 G331C, P39940”, the abundance fitness was -0.095 ± 0.09.

In turn, “E3 ubiquitin-protein ligase RSP5 G331D, P39940” came in with an abundance fitness of 0.059 ± 0.087.

Consider “E3 ubiquitin-protein ligase RSP5 G331E, P39940”, for which the abundance fitness was -0.127 ± 0.049.

Substance “E3 ubiquitin-protein ligase RSP5 G331F, P39940” displayed an abundance fitness of -0.126 ± 0.084.

“E3 ubiquitin-protein ligase RSP5 G331H, P39940” came in with an abundance fitness of -0.009 ± 0.15.

Regarding “E3 ubiquitin-protein ligase RSP5 G331I, P39940”, the abundance fitness is -0.071 ± 0.068.

In the case of “E3 ubiquitin-protein ligase RSP5 G331K, P39940”, the abundance fitness was -0.121 ± 0.046.

The substance “E3 ubiquitin-protein ligase RSP5 G331L, P39940” displayed an abundance fitness of -0.095 ± 0.046.

Consider “E3 ubiquitin-protein ligase RSP5 G331M, P39940”, for which the abundance fitness was -0.02 ± 0.055.
